Test: purified protein yield per well (BCA); higher = higher soluble expression
Experimental: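 Candidate PET hydrolases were expressed in E. coli C41(DE3) in 2 mL autoinduction cultures in 24-deep-well plates, Ni-bead purified and released by SUMO protease cleavage on an OT-2 robot. Yield per well was measured by BCA; values below 25 ug (0.1 mg/mL) are below the detection threshold. Melting temperature was measured by differential scanning fluorimetry with Sypro Orange, ramping from 25 C at 0.3 C/step.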

Sequence | purified protein yield per well
VENGPAPTFSSVQAEGPFAVSTQTVRGSGFGGGTVYSPNTAGKYAVVAVCPGFTATQSSIALISRRLATHGFVVVTISTNSVYDYPASRANQLLAALRTVTALTTGPVAGKMDISRQGVAGWSMGGGGAMLAAGMTPGLKAGVAFAPWSLTNNVGSSSVPMAYLAGTADTVAPASSHSTVFYNAMPATTNKLIGVIQGANHYFPGTASQPASYTQVAWMKRFLDGDTRYSQFLNGDSRFATFRSTGPF [ESM102] | < 25 µg
QQIGPNPTSAQLNATSGPFAVSSSNVLIASGFGGGTIYYPTQSGSYGVIAVCPGFTGTSSSISWFARRLATHGFVTIAMDTNTLLDQPDSRATQLRAALNYLINNSSSTIRSRINPNLRGVAGHSMGGGGTLIASASDSTLKVGIPLTPWNLSSLPFYSIRVPQLVFGADGDTIAPYAVHARPFYNAIPSTTKKAYALLQSASHFTPNTTDERIGRYGVAFAKRWVYNDTRYSTFLTGAEHNAYNNILRFQTYLHNGPY [DP062] | < 25 µg
RPSAENPYERGPAPTVASIEAARGPFGTAETRVSATAVRGFGGGTIYYPTDTSQGTFGAVAVAPGFTASQSSMSWLGPRLASQGFVIFTIDTLGRYDQPAARGDQLLAALDYLTQSSSVRGRIDGSRLAVMGHSMGGGGSLEAAKDRPALQAAIPLTPWNATKNWSSVRTPTLIIGAERDSVASVAAHSEPFYASLPSTLDRAYLELAGASHFAPNVANVTIAKYSISWLKRFVDNDTRYEQFLCPLPSGSAISEYRGNCPHQG [TEP152] | < 25 µg
SASASAPAASRVQAAASGNTYQRGPDPTLSSVAASTGPFATAQVSVPAGYGFKGGMIYYPTDTSLGTWGAVAIVPGYTALFANEEAWMGPWLASFGFVVIGVETNSTTDYDTQRGTELLAALNYLTTQSPVRDRVDPTRLGVIGHSMGGGGVVYATEHQPSLKGAVALAPFSPSQSMATDTVPTMVMGGQNDTVVTPSYLAGLYATLPASTQSDFIQIAGADHIYYTHPNPVEMRILIPWLKTFLDEDTRYTQFLCPTLADPSGVSMYQSKCPYVPGGGSTPPPPAGGALHAVGAGKCVDVPNSTTTSGTQVQIYSCNGQANQAFTHNSAGELAVTDAGVTDCLDANGKGTTNGTKVIIYPCNGQPNQQWTINSNGTITGVQSGLCLDVTGASTANGALVELWTCNGGSNQKWTLS [TEP058] | < 25 µg
YYPTSTSDGTFGAVVVTPGFTATESSMAWLGPRLASQGFVVFTIDTLTTLDQPDSRGRQMLAALDYLTERSSARTRIDGTRLGVIGHSMGGGGTLEAAKSRPSLKAAIPLTPWNLDKTWPEVTTPTLVVGADGDTVAPVATHAKPFYSSLPSSTDRAYLELNNATHFAPN [TEP120] | < 25 µg
ADSPYQRGPDPTPASVAATRGPFATTQATVPAGNGFNGGYVYYPTDTSQGTWGAVAIVPGYSALFANEEAWMGPWLASFGFVVIGIETNSRSDGADARATQLLAALDYLTRTSPIRDRVDANRLGVMGHSAGGAGTLLASLRRPTLKTAVGLAPGTPGNNLNMSTTQVPTMLLSGQNDGTVTPSYVQGIYNTLPAGVEHAWAELAGNDHLSFTRSNPTEMRLLIPWLKTFLDNDTRYTQFLCPLGNSTGVSRYNATCPLVPPDGPTTPPTSSPPTSAPPTTSAPTTPPPSGAPCTATYRTVNAWSGGFQGEVTVTAGTAAINGWTVTWGLNNGQSISQVWSGTLSTSGSTATIRNVSYNGSLAPGGTTSFGFLGSGTPAATSPTCASP [ESM025] | < 25 µg
QNCGNISLNNITNPGPYGYLTMDQNDGLRDGPDYGNATVYYPTNTTTPFACVSIVPGFFSTQSSVAAWGPFLASHGIVSIIFDTNSLFDSPADRADGLLDALETMRQENTRTASPLFGLIDESRFGVMGWSMGGGGAQLAAVIDPSLKAVIALCPWLNSPNSNTLNHTVPVLILSGELDPTAPPDLHADVHFDLTPNTTDKLLFEVDGGDHSIANDPANAQGDIGKYGLAWLRNYLLDDPCHCPLVLLPSTETSNTMTNVVCPPTLACPIQLTLFNNLIADGTYKAIQTVTSASMVPLSGNVSLKAEQSIFLDCGFSVDSGAAFEAVIQICN [TEP048] | < 25 µg
AAPATAPSVQRAAANPHERGPAPTEESITAEEGPFEFETIDVPAGSGDGFNQGTIYAPTDLSQGTFGAIAVSPGFVSPEALISWYGPRLASQGFVVMTIETNTLLDQPAARGDQLLAALDYLTGGDSPVRDRVDTGRLAVTGHSMGGGGTLEAARERPGLRAAVPLAPWNLNSDWSAVRTPTMILGAQNDFIAANGLHSEPFYEGLTSAPEKAYAEIANTGHMSFNTPNDVIAKYTIAWMKRYVDDDTRYERFLCPAPSDDPALVEYRDTCPGG [TEP002] | < 25 µg
AADNPYERGPDPTEQSVTAIRGPFNVAQTDVSRLAVTGFGGGTIYYPTDTSQGTFGAIAISPGFTAYWSSLSWLGPRLASQGFVVFGIETNTTLDQPAQRGQQLLAALDYLTQRSSVRSRVDASRLAVAGHSMGGGGTLEAAKSRTSLKAAIPIAPWNLDKTWPEVRTPTLIIGGELDSIAPVATHSKPFYSSLSNAPEKAYLELDNASHFFPQISNTTMAKYMISWMKRFIDNDTRYDQFLCPPPRAIGDISDYQDTCPHS [TEP031] | < 25 µg
TPEAPAARAAENPYERGPDPTESSIEAPRGSYSVSERSVSSLSVRGFGGGTIYYPTSTADGTFGAVAISPGFTARQSSMAWYGERLASQGFVVFTIDTNTTMDQPASRGDQLLAALDYLTDDSAVRSRIDSNRLAVMGHSMGGGGSLEAAKDRPSLKAAIPLTPWNTDKSWPEVRVPTFIVGADGDSIASVRSHAEPFYESLPSSTDRAYMELRNATHFAPNSADTEIAKYSISWLKRFVDEDTRYEQFLCPIPSSDLQIAEFRGNCPH [TEP075] | < 25 µg
AAPHASTAHHHAPFAVRTTVVPRTADAKFGGGVIYEPQDTGKPVLGAVVITPGFTDTNADEKEMAELVASQGFVAFAIDTLDVGDLPDQRATEILAAADYLTGQSAVKSQVSAKDLAFLGYSMGGGGTFQAAQARPSVKAAIGLMPFDIPDANDPNATTPSYPKLTTPSLVVTGQKDDVADPEYFGKPIYDSIPVGTPKQYLELTGLGHGAGEHVPAPTIRVAVTAFLKRYLDGNSAYAKYICPAPKVGGPVSASLSSCPQG [ESM176] | < 25 µg
TQSGPYQVKRYREKDGLRNGPRYRGATVYYPTDARGLLASIVIVPGYISPERSIRAWGPFYASHGIVAMTIGTNRPQDAPAARRRALLDAITSLKLENHRANSPLKGRLAVTRIAVSGWSMGGGGALEAATRAPQLKAVVALCPWNPYQTFSHRVPVLFLAGQRDRLAPVSDNALRHYEKTPASTPKLLFEVRNEGHWVANTPQGGNGAIGRLALS [TEP155] | < 25 µg
VQIGPAPTSAALNKDGTFSVSSTSVSSLSARGFGGGTIYYPTTAGQYGVIAVCPGYTGTSSSISWFARRLATHGFVTIAMNTTTTLDQPDSRATQLAAALKCVLSNSTVKSRIRSTDRGVAGHSMGGGGTLIASQSDSSLRVGIPMTPWNLSTNFSAVKVPQMIFGADGDTIAPYASHARPFYNSINKTQKAYGLLKSATHFTPNSTDQRIGRYGVAFAKRFVDGDTRYSAFLCGAEHSSYATSSKFATYLSNCPY [ESM154] | < 25 µg
APAPATAAAADNPYERGPDPTEDSIEAARGPYDVAETSVSSWVVSGFGGGTVYYPRETDDGTFGAVAVAPGYTASQSSMAWLGPRLASQGFVVFTIDTLTRLDQPASRGRQLLAALDYLTERSAVRNRIDASRLGVMGHSMGGGGTLEAAADRPSLQAAVPLAPWNLDKTWGELRVPTMIIGADGDSIAPVSSHSEPFYESLPGGLDRAYLELNNADHFTPNLPDTTLAKYSLSWLKRFIDNDTRYEQFLCPLPRPGWYIEEYRGTCPHLS [TEP124] | < 25 µg
VASPYQRGPDPTVASIEASRGPFAIAQTTIAASSVRGFRGGTVYYPTSTAEGTFGAVAISPGYTATQSSVAWLGPRLASQGFVVVTIDTLSRYDQPASRGTQLLAALDHLTTASSVRTRIDRNRLAVMGHSMGGGGSLSAANTRPTLQAAIPLTGWHTVKNWSGVRVPTLVVGAENDSIAPVTSHSEPFYTSLPSTLDKAYLELNAAGHSAPTSSNVTVAKYSISWLKRFVDDDTRYEQFLCPAPRGTAIQEYRDTCPHS [DP083] | < 25 µg
DGPYDVDWIYESDGLRNGPYYLGATLYYPINTSESLASIVIVPGWGMPESSIQNWGPFFASWGIIAMTIGTNNPYDWPEERAEALLDAIETIKQENVRSDSPVYGMVDINSFAVCGYSMGGGGAQWAATIDSYLDAVVALNPALAIYDTINCTDPEFDYYCLVPEHLNHSTPVLIITGENEDANGTSATGYNHYEYTPNATDKMFFQVSNSGHEAAYGPYGANGEVGEKSMQWLKFHLFCLEFLNIIKLQRKLKMI [TEP020] | < 25 µg
MYYPTTTSVGTFGAVAIAPGYTARESSIAWLGPRLASQGFVVFTIDTITTQDQPSSRGDQLRAALSYVATESSVRTRVDGSRLAVMGHSMGGGGSLQAAKDDPSIRAVIPMTPYDLDKTWPEVVAPTLVIGAEDDTVAPVSRHAEPFYESLTQASEKAYLELRGASHFAPNVSNTTIASASIAWLKRHVDADTRYERFICPAPAVSLQISEYRSTC [TEP079] | < 25 µg
VQIGPNPTKASLEASSGPFTVGKFTISRPSGYAAGTVYYPTNAGAKVGVISIVPGFVSYQSSVAWWGPRLASHGFVVVTIDTNTTVDQPDSRSRQQLAALDQVVALGNNSSSPLYNKIDGTRTGVMGWSMGGGGSLISAKNRPSIKAAAPQAPWASLTSFSSLTVPTLIFSCQSDIVAPVATHANSFYNEMSRNPKQLLEKTLGDHFCMNSANPTVGLKGVAWMKRFIDGDTRYTTFACSNPNAFGFSDFRTARCS [ESM111] | < 25 µg
MVSYSPRYKAVAFTVAAGLVGGGLAGLAPNRHERGPDPTRALLEAPRGPLATARTVVPRAEAAGYGGGTIYHPAEMRTGETYGAVAIIPGRNGPQSGMSWYGPRLASHGFIVFTIDALRPLDRPPARGAQLQAALQQLAVRSPVATHVDAGRLAVMGHSLGGAGALEAAKARPGLRAAIPLTPSDVAGPDFSGVRVPTLILAAEKDTVAPLGRHARKFYRAIPRGTEKAYVELAGATHGFPKLPHPTVARYTIAWLKRWVDGDRRYDRVLCPSGRREPAVSFQRDTCPHD [TEP187] | < 25 µg
HGFNGGYIYYPTDTSQTFGAVAIVPAYTALFADEEAWMGPRLASFGFVVIGIETNSREDWDRARGAQLLAGLDYLTQHSAVRTRIDARRLAVIGHSMGGGGAFAAAARRPSLRAVVGLTPYFPSGDLATIRVPTLIIGGQNDTTVTPSYLERLYASLPTRTPSAYVMLADADHLFPTKPNPDQMRVLVPWLKIFVDKDVRYTRFLCPLADRSGISQYQVTCPLVPTV [TEP043] | < 25 µg
QTTAPTSSSLNATAGPYSVSTSSVTLPVGFGGGTVYYPTQTGKYGVIAISPGFTATQSSIAWLGRRLATHGFVVLTMNTLTTLDQPASRANQLMAALNYVLNSSPSAVRSRADGTRTAVAGHSMGGGGSLIAARDYPTLKASYPMTPWSPTSNFSTVRVPTMIIGADGDTIAPVATMSRVYYQNLPSTTSKAYGELNNATHFAPNMTNTPIGRYAVTWMKRFVDSDTRYSPFLCGAPHQAYATSLVFDRYSQNCPY [ESM083] | < 25 µg

— the supplement of paper PMC12455559
